Measured values from PMC5871715 (2018).

B1: full-length human Draxin AVEXIS prey, wild type [human] / human Netrin-1 WT bait protein (VI+V), AVEXIS [human] (parent complex)
chain 1: GALAPGTPARNLPENHIDLPGPALWTPQASHHRRRGPGKKEWGPGLPSQAQDGAVVTATRQASRLPEAEGLLPEQSPAGLLQDKDLLLGLALPYPEKENRPPGWERTRKRSREHKRRRDRLRLHQGRALVRGPSSLMKKAELSEAQVLDAAMEESSTSLAPTMFFLTTFEAAPATEESLILPVTSLRPQQAQPRSDGEVMPTLDMALFDWTDYEDLKPDGWPSAKKKEKHRGKLSSDGNETSPAEGEPCDHHQDCLPGTCCDLREHLCTPHNRGLNNKCFDDCMCVEGLRCYAKFHRNRRVTRRKGRCVEPETANGDQGSFINV
chain 2: not shown

Variants of: B1
Assay: AVEXIS; average of three repeats; read off a plot

Variant | response [A486 nm]
chain 1 L203R | ~0.004
chain 1 L203A | ~0.004
chain 1 L203P | ~0.005
chain 1 F208P | ~0.037
chain 1 F208R | ~0.021
chain 1 F208A | ~0.055
